From the supplement of paper PMC12042874
± gives the uncertainty stated by the source.

Experiment: amyloid nucleation score (Sup35N fusion, yeast selection) (log enrichment); library NNK2; higher = more nucleation; inactive = no reads after selection
How it was run: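 Three technical output replicates were used for random libraries. Psi-negative yeast expressing peptides of 20 random codons fused to Sup35N were induced with 100 μM copper sulfate for 24 hours and grown 7 days at 30°C on medium lacking adenine and uracil, and input and output plasmid inserts were Illumina-sequenced, excluding sequences with under 100 input reads. The nucleation score is the DiMSum log enrichment of output over input reads, centred on the mode score of non-aggregating sequences.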

Row | Substance | amyloid nucleation score
1 | GMFLWLFLVPRYHPTSTELG | 0.219 ± 1
2 | KDFLANPKGESGQQRTMQCI | -0.502 ± 0.79
3 | GILNRTRPFR | -0.595 ± 0.28
4 | ALVVLFTCGCSGMLVYNAWS | 0.841 ± 0.13
5 | LSRSGNAPDMKKLLNFGQTR | 3.71 ± 0.042
6 | ALGVPLYMIEGIGKCLLSLK | 1.24 ± 0.43
7 | GYLSDMINFVSYCGRLSWSV | inactive
8 | TCFTSCSG | 0.263 ± 0.37
9 | RWLPSVID | -0.302 ± 0.61
10 | IIQRRK | -0.157 ± 0.27
11 | MTTFDIRIMA | 0.195 ± 0.24
12 | IVKFDVRVMCADLIGSHGQW | 7.02 ± 0.085
13 | RLTLVNRAGCIVCNGQGCLQ | 9.245 ± 0.069
14 | QSNSSRLHSCRGAIVICI | 6.751 ± 0.066
15 | GNNGRFSWVY | 0.556 ± 0.37
16 | MYTSLLVYML | 3.78 ± 0.048
17 | VLGNGYPD | -0.19 ± 1.1
18 | AISDGPET | 0.746 ± 0.43
19 | NLKKAQFRGMYVAYP | 1.55 ± 0.47
20 | RHAASVWLKDQDVLYPTMT | 0.995 ± 0.16
21 | IGSWSTA | 0.367 ± 0.36
22 | SFDKGIDYRFFTFNSNVKYW | 3.49 ± 0.12
23 | CCWRSNSRNTNVIPNLSLFR | 3.94 ± 0.04
24 | CMGGQQPALGISSFTVVWLY | inactive
25 | YHWWDLLLTLREPVRWRIQP | 1.55 ± 0.23
26 | FMITQSFSGT | -1.05 ± 0.41

Row | Substance | amyloid nucleation score
27 | NCPSTDFPELMSMQSYCLLC | -1.71 ± 1.1
28 | WLWSSLISSMVVYSQ | 2.53 ± 0.072
29 | SRPTKYSKWILMPPCY | inactive
30 | GVIWVCIRCDHGGTAMRLLW | 1.25 ± 0.45
31 | YIDALSIVFCVAVIGHTPTW | 8.753 ± 0.039
32 | ITKPLVALKNGYMVL | -0.177 ± 0.56
33 | NAICPIKVSGFGCLSKR | 0.092 ± 1.1
34 | IMGHYVYDVVR | -0.352 ± 0.36
35 | HLLYPSSMVDRALHGLDTRT | 5.358 ± 0.051
36 | LTLLYIWSKDAVRYLLGNMD | -1.09 ± 1.1
37 | SCRRMLFGMWILGFLNR | inactive
38 | VIKFFNLREQFFVIIMAYGF | inactive
39 | NLRPAFHDMDKQCGG | 0.045 ± 0.63
40 | YTYSYATLNMWFQLT | 6.59 ± 0.033
41 | QGFYDGQPV | 0.203 ± 0.5
42 | FFYSVRVRPALIIC | inactive
43 | WVAFANFVHGLMTLGHWGSR | 1.28 ± 0.27
44 | VLTDSCKFYCELCQLNREVY | 0.443 ± 0.36
45 | SNIRISTADDSNSFLPFSSA | -0.315 ± 0.43
46 | GAGLMALNLTHFVGGGLSTN | -0.179 ± 0.76
47 | RVLADVKRYRECQTRCRDAW | 1.04 ± 0.34
48 | STTWNSLELTTDNAAGAAII | 2.95 ± 0.09
49 | ARLSWWGS | -0.184 ± 0.29
50 | QGRRISKLC | -1.39 ± 1
51 | LGPEYTWQI | 0.548 ± 0.42
52 | GLGYSLICNLTSICGKNNV | -0.147 ± 1.1

Row | Substance | amyloid nucleation score
53 | SFLRSNRGEVLPCNILNYVA | inactive
54 | YTNHSLNMHLWCRNS | inactive
55 | VCAQLYPVYMWFWICMGMVQ | 2.27 ± 0.14
56 | FVLTCRSSLYAVRDRLK | 1.35 ± 0.43
57 | MVLVS | 0.548 ± 0.34
58 | PLDGEIRREHVLAYEE | -0.454 ± 0.48
59 | VRMSQKDGKTPFQMFGHLEM | 0.039 ± 0.21
60 | RCPLHPLGGLYTIWSDYLRL | 5.82 ± 0.075
61 | MSGEDSGCLWDCNVYSRLDV | -0.486 ± 0.74
62 | SQVGTW | 0.795 ± 0.41
63 | CVVEQALLLWN | -0.243 ± 0.79
64 | YHFTLGCNSEGCR | -0.668 ± 0.24
65 | NSWASPTVVFIRPVHMLLVL | 0.158 ± 0.25
66 | IRAKFI | 0.455 ± 0.39
67 | VILMDMYHAGNSAMCLACGN | -0.119 ± 0.49
68 | TPDGIRLSVAHCS | 0.764 ± 0.24
69 | GYTIDWMGVLQSVVLCT | 0.524 ± 0.6
70 | SLGCSAFR | -1.62 ± 0.62
71 | YESGVSCFFVYVMNTYHIWG | 5.17 ± 0.097
72 | IGTVAPVDLTAYSRERLFRM | inactive
73 | RDVLTDNQNAIRLLRGVSAY | 0.298 ± 0.19
74 | NCWRNGCVQLFRWY | 5.15 ± 0.092
75 | YYYVTCSILPLFYFEKGLAL | 5.711 ± 0.037
76 | AFCTVSSCFMSSSLPI | 5.3 ± 0.06
77 | ALLVILLDCLQFIYMTELNC | -0.032 ± 1.1
78 | SYVVVAPLCQCTTVSGRRGI | 1.04 ± 0.59

Row | Substance | amyloid nucleation score
79 | VGYFLKAMETCVTSLL | inactive
80 | LCYSFYPQSVKSFEFPNYFY | inactive
81 | HPFMFKVCSTYFLNYLASCQ | 6.78 ± 0.074
82 | CVLSLNTGTASWITHVWKLY | 0.349 ± 0.5
83 | YSWWW | 1.15 ± 0.66
84 | RHVYWSRSPPRTYGKEWTKG | 0.647 ± 0.23
85 | RGLRMTRIISFFGIVGL | 8.507 ± 0.026
86 | RMCDL | -1.19 ± 0.79
87 | LLPYSSHN | 4.901 ± 0.039
88 | LILMAENL | -0.92 ± 1.1
89 | TAIYENYCMSVMWMLVVGRI | -0.277 ± 0.3
90 | IKYYVTVWSLESDTAWVGGL | 0.196 ± 0.45
91 | DGFYCL | 0.019 ± 1.1
92 | VYNSGWQVGWAKGLWSSLYN | -0.409 ± 0.34
93 | TFHRS | 1.05 ± 0.29
94 | GWVLTSCGANGWRK | -0.371 ± 0.63
95 | SGILLLRSLFGWPISERGHN | 0.167 ± 0.56
96 | KPGRYRDVIRFLSDLLECNG | inactive
97 | SLSWQNPCLMFMDNMADMIS | -0.006 ± 0.54
98 | HCRSIVWSRYFLMNPLN | -0.029 ± 0.61
99 | SSRVDLLLLVETAFARSRIW | 3.31 ± 0.08
100 | IDAELLGWFFPEDGFHFSAV | -1.32 ± 1.1
101 | ALLWCQMWERDRSEFPIGGF | 1.2 ± 0.45
102 | NNNKI | inactive
103 | LWHHIHSDLMTIYFVLDSSG | inactive
104 | TVFVWKPRVGKN | 4.716 ± 0.044

Row | Substance | amyloid nucleation score
105 | NEVDG | 2.28 ± 0.1
106 | VGGSDSLNFIAIGKTFCVQV | 0.186 ± 0.27
107 | IYCNNPRWSFLHSLKLEPLG | -0.476 ± 0.28
108 | ICLDLCNMKLEKGLS | -1.55 ± 1
109 | LVESGQGDQSAPNRTDWFNG | -0.437 ± 0.49
110 | LFLRAHILGTVTCIRDFAPG | 1.14 ± 0.18
111 | LTRVNWCLPKAGSLKQF | -0.06 ± 0.79
112 | TCRLRFGCEYGQTFSCVSWA | 0.531 ± 0.64
113 | ISYSVKPLYFVSRVRTVNLG | 4.13 ± 0.078
114 | GLNVFCEKYISFKVMGIVER | 5.24 ± 0.069
115 | LYIDLHDEALRTTKMDMLNG | inactive
116 | SKNDCRVFPSDMHFWHDLVE | 0.351 ± 0.44
117 | RILYMMDFSFGANSIYFYWN | 4.4 ± 0.065
118 | RRNTLRYARMKSRYSFAP | -0.674 ± 0.79
119 | LITIAIAARCSRMIGLQLFL | -0.495 ± 0.32
120 | NSHFALDGKSW | -0.711 ± 0.39
121 | RCLWYKACMRPF | inactive
122 | WSWLRICIS | 0.549 ± 0.32
123 | DNILICMYGDVYMGCYCQAI | 8.632 ± 0.05
124 | SKTMSKMNKDQLQHSMLHDP | -0.453 ± 0.45
125 | TRCFQILPCYRI | -0.624 ± 0.76
126 | DHCMMLRFN | 0.716 ± 0.6
127 | FCRETLRTRKAETLGTVNKE | -0.937 ± 0.78
128 | GNNIVDPMLYLEGFKFSPIP | 0.082 ± 0.65
